“And” between values parts separate entries of the source, which are not always exact repeats. Equal values may be shown once.

Assay [1] concerns the target T1, plasma kallikrein (pKal) (UniProt P03952 20-390; P03952 391-638, limits assumed).
T1 construct: the description speaks of human pKal; also called active pKal
Put plainly: enzyme inhibition, corrected Ki,app, control plate 1.

The target of assay [2] is T1, plasma kallikrein (pKal). Nature of the assay: pKal enzyme inhibition, Ki,app, control.
For assay [3], the target named is T1, plasma kallikrein (pKal). Put plainly: enzyme inhibition, corrected Ki,app, control plate 2.
Assay [4] deals with T1, plasma kallikrein (pKal). Nature of the assay: enzyme inhibition of human pKal: rate (F/s) against antibody concentration (0 to 10 nM), fit to the tight-binding equation printed in the panel; K is Ki,app. Columns are coefficient, std. error, t, P. The unit is taken from the concentration axis '[nM]' [CONT'D) B. (left panel].
The target in assay [5] is T2, Factor XIIa (FXIIa) (UniProt P00748 20-372; P00748 373-615, limits assumed).
T2 construct: the description speaks of human FXIIa; also called active Factor XII
T2 sequence (looked up) 1: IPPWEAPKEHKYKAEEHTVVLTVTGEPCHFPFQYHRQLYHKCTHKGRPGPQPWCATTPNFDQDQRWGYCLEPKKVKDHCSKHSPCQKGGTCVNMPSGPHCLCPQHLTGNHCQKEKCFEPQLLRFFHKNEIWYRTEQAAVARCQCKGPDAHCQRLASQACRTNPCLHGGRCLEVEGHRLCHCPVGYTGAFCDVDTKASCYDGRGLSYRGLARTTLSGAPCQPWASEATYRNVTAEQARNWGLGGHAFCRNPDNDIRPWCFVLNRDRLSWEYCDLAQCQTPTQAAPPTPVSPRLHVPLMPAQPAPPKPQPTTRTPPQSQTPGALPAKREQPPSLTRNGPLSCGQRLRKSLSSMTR
T2 sequence (looked up) 2: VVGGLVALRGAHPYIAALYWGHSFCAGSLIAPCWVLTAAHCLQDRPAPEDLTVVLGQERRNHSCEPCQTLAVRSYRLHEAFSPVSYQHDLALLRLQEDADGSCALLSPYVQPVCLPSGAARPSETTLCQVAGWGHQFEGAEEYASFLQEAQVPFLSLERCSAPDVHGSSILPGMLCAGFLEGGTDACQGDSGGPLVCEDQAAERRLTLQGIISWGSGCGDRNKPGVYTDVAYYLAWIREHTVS
Put plainly: enzyme inhibition: rate (F/s) against antibody concentration (0 to about 9000 pM), fit to the tight-binding inhibitor equation; K is Ki,app. FXIIa as the enzyme follows from the text; it is not printed in the panel [right panel].

In assay [6] the target is T1, plasma kallikrein (pKal). Nature of the assay: enzyme inhibition of human pKal: rate (F/s) against antibody concentration (0 to 10 nM), fit to the tight-binding equation printed in the panel; K is Ki,app. Columns are coefficient, std. error, t, P. The unit is taken from the concentration axis '[nM]' [CONT'D) B. (right panel].
The target of assay [7] is T2, Factor XIIa (FXIIa). Nature of the assay: enzyme inhibition assay, apparent Ki.
For assay [8], the target named is T1, plasma kallikrein (pKal). Put plainly: enzyme inhibition assay, apparent Ki.
For assay [9], the target named is T2, Factor XIIa (FXIIa). Put plainly: enzyme inhibition, peptide substrate, tight-binding fit, Ki,app. Here is the method: (§1) Varying concentrations of the bispecific antibodies were incubated with individual FXIIa and pKal samples, and the ability of these proteases to cleave a peptide substrate was monitored over time by measuring changes in the fluorescence of a chemical moiety covalently attached to the peptide substrate. Slopes of this kinetic data are equivalent to enzymatic proteolytic rates, which are then plotted against the concentration of the inhibitor. The resulting plots are then fit to a tight binding inhibitor equation (Equation 1) by nonlinear regression to obtain apparent inhibition constants (Kᵢ^app).

The target in assay [10] is T1, plasma kallikrein (pKal). The description is as above. Here is the method: as §1
In assay [11] the target is T2, Factor XIIa (FXIIa). Put plainly: FXIIa enzyme inhibition, Ki,app.
The target in assay [12] is T1, plasma kallikrein (pKal). Put plainly: pKal enzyme inhibition, Ki,app.

T1 sequence (P03952 20-390 limits assumed, form in doubt, chain 1 of 2): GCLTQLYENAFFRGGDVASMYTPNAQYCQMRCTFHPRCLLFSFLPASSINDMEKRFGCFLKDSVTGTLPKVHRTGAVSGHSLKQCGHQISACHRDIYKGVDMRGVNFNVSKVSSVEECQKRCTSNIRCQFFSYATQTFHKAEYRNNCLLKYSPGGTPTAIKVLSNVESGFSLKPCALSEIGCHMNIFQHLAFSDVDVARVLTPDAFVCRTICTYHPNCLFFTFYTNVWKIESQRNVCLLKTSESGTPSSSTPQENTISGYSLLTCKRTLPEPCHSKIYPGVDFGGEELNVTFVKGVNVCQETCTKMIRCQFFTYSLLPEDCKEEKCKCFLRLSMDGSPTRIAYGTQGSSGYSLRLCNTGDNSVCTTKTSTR
T1 sequence (P03952 391-638 limits assumed, form in doubt, chain 2 of 2): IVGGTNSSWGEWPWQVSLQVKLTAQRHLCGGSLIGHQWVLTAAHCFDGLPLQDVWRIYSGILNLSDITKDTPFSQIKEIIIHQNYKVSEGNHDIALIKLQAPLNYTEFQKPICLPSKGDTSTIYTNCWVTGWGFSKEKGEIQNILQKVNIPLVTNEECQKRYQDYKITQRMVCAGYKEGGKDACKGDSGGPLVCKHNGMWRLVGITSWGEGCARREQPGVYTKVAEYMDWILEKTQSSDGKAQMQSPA

B1: DX-2930 (antibody, human IgG1, kappa, V domains shown)
VH: EVQLLESGGGLVQPGGSLRLSCAASGFTFSHYIMMWVRQAPGKGLEWVSGIYSSGGITVYADSVKGRFTISRDNSKNTLYLQMNSLRAEDTAVYYCAYRRIGVPRRDEFDIWGQGTMVTVSS
VL: DIQMTQSPSTLSASVGDRVTITCRASQSISSWLAWYQQKPGKAPKLLIYKASTLESGVPSRFSGSGSGTEFTLTISSLQPDDFATYYCQQYNTYWTFGQGTKVEIKR
notes: Anti-pKal IgG1; also called H03
In the case of B1, the Ki with plasma kallikrein (pKal) [1] is 0.16 nM; in the assay with plasma kallikrein (pKal) [2], 0.127 nM and 0.131 nM and 0.151 nM; in the assay with plasma kallikrein (pKal) [3], 0.138 nM; with plasma kallikrein (pKal) [4], 0.202 nM.

B2: 620I-X0177-A01 (bispecific antibody, human IgG1, kappa)
heavy: not shown
light: DIQMTQSPSTLSASVGDRVTITCRASQSISSWLAWYQQKPGKAPKLLIYKASTLESGVPSRFSGSGSGTEFTLTISSLQPDDFATYYCQQYNTYWTFGQGTKVEIKRTVAAPSVFIFPPSDEQLKSGTASVVCLLNNFYPREAKVQWKVDNALQSGNSQESVTEQDSKDSTYSLSSTLTLSKADYEKHKVYACEVTHQGLSSPVTKSFNRGEC
notes: 620I-X0136-D12 with germlined, gene-optimized scFv and VH44-VL100 disulfide; also called 620I-X0173-A11; 620I-X0136-D12 with H44/L100 engineered disulfide bond
Turning to B2, the Ki was found to be 0.0726 nM in the assay with Factor XIIa (FXIIa) [5], 0.39 nM in the assay with plasma kallikrein (pKal) [6], 0.073 nM with Factor XIIa (FXIIa) [7] and 0.389 nM with plasma kallikrein (pKal) [8].

B3: X0122-C01 (bispecific antibody)
heavy: not shown
light: B2 light
notes: also called X122-C01
As for B3, the results for the Ki with Factor XIIa (FXIIa) [9] and in the assay with plasma kallikrein (pKal) [10] were 5.69 nM and 0.161 nM, respectively.

B4: X0122-A01 (bispecific antibody)
heavy: not shown
light: B2 light
notes: also called X122-A01
Take B4: the Ki in the assay with Factor XIIa (FXIIa) [9] came out at 6.05 nM; in the assay with plasma kallikrein (pKal) [10] it was 0.169 nM.

B5: 620I-X0180-A05 (bispecific antibody, human IgG1, kappa)
heavy: not shown
light: B2 light
notes: 620I-X0177-G01 with IgG C-terminal Lys deleted; also called 620I-R0052-A03; 620I-X180-A05
Consider B5, for which the Ki with Factor XIIa (FXIIa) [11] was 0.116 nM; in the assay with plasma kallikrein (pKal) [12], 0.254 nM.

B6: 620I-X0180-E07 (bispecific antibody, human IgG1, kappa)
heavy: not shown
light: B2 light
notes: 620I-X0177-E01 with IgG C-terminal Lys deleted; also called 620I-R0052-E03; 620I-X180-E07
For the molecule B6, the Ki with Factor XIIa (FXIIa) [11] was 0.092 nM; in the assay with plasma kallikrein (pKal) [12], 0.243 nM.

B7: X0121-E01 (bispecific antibody)
heavy: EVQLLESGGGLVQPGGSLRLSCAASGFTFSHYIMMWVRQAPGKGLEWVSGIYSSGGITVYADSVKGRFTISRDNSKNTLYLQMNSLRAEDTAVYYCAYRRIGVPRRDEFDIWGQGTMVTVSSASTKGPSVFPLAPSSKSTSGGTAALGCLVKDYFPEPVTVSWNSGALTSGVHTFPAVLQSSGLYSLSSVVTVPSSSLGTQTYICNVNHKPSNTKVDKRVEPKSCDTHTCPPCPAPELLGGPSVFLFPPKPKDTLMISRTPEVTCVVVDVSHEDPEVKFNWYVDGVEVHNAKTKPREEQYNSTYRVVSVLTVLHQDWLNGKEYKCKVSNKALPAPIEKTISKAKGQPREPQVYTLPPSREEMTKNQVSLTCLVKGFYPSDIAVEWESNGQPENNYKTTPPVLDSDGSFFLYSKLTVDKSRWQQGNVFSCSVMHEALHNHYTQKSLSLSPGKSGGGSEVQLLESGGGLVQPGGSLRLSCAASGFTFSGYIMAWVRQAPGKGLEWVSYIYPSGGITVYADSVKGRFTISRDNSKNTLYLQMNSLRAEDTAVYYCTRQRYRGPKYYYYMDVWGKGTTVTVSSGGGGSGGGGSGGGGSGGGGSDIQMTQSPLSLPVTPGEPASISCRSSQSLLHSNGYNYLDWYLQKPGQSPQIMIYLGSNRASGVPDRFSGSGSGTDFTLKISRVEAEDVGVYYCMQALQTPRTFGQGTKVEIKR
light: B2 light
notes: also called X121-E01
Regarding B7, the figures for the Ki with Factor XIIa (FXIIa) [9] and with plasma kallikrein (pKal) [10] were 0.611 nM and 0.159 nM, respectively.

B8: X0120-A01 (bispecific antibody)
heavy: not shown
light: B2 light
notes: also called X120-A01
On to B8, for which the Ki amounted to 0.0515 nM with Factor XIIa (FXIIa) [9] and 0.138 nM with plasma kallikrein (pKal) [10].

The values are drawn from patent US20250263504A1 (Takeda / Millennium, published 2025).
